Data published in patent EP4628508A1 (Biodlink Biopharm Co., Ltd., dated 2025).
Substitutions are numbered along the chain they refer to.

B1: PR302950 (antibody, human IgG1, kappa, V domains shown)
VH: QVQLQESGPGLVKPSGTLSLTCAVSGGSISSSNWWSWVRQPPGKGLEWIGEVYHSGSTNYNPSLKSRVTISVDKSQNQFSLKLTSVTAADTAVYYCARVTGNKDYYYYDLDVWGQGTTVTVSS
VL: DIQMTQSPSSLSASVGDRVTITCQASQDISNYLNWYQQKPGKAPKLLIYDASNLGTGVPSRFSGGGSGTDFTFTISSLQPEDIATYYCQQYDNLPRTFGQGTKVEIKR
notes: IgG1; also called PR302950 (IgG1)
B2: PR302951 (antibody, human IgG1, kappa, V domains shown)
VH: EVQLLESGGGLVQPGGSLRLSCAASRFTFSTYAMSWVRQAPGKGLEWVSSISGSGFNTYYADSVKGRFTISSDSSKNTLYLQMNSLRAEDTAVYYCAKDRQWLVSSFDYWGQGTLVTVSS
VL: DIQMTQSPSSLSASVGDRVTITCQASQDISNYLNWYQQKPGKAPKLLIYDASNLETGVPSRFSGSGSGTDFTFTISSLQPEDIATYYCQQYDNLITFGQGTRLEIKR
notes: IgG1; also called PR302951 (IgG1)
B3: PR302702 (antibody, human IgG1, kappa, V domains shown)
VH: B2 VH with R26G, S35T, G55D, S72R, S74I, R100Q, Q101E, S105R, D108H, Y109H
VL: DIQMTQFPSSLFAFVGDRVTITCQASQDISNYLNWYQQKAGKAPKLLINDASNLETGVPSRFSGSGFGTDFTFTISSLQPEDFATYYCQQYENLPTFGGGTKVEIKR
notes: IgG1; also called PR302702 (IgG1)
B4: PR302949 (antibody, human IgG1, kappa, V domains shown)
VH: B2 VH with R26G, T31S, G55D, N57S, S72R, S74T, Y109F, T114A
VL: B2 VL
notes: IgG1; also called PR302949 (IgG1)
B5: PR301366 (antibody, V domains shown)
VH: EVQLLESGGGLVQPGGSLRLSCAASGFTFSNYAMNWVRQAPGKGLEWVSVISVSGGSTYYADSVKGRFTISRDNSKNTLYLQMNSLRAEDTAVYYCAKDYYYDSGSYYDSFFDYWGQGTLVTVSS
VL: not shown
notes: also called control antibody PR301366 (Five Prime: WO2020014132)
B6: PR302934 (antibody, human IgG1, kappa, V domains shown)
VH: QVQLQQWGAGLLKPSETLSLTCAVYGGSFSGYYWSWIRQTLGKGLEWIGEVSHSGGTNYNPSLKSRVTISVDTSKNQFSLKLSSVTAADTAVYYCARSPYYGDYMYVFDIWGQGTMVTVSS
VL: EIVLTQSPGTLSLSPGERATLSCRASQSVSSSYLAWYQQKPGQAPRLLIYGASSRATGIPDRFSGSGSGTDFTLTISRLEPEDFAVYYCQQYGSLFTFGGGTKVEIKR
notes: IgG1; also called PR302934 (IgG1)
B7: PR302927 (antibody, human IgG1, kappa, V domains shown)
VH: EVQLLESGGGLVQPGGSLRLSCAASGFTFSSYAMSWVRQAPGKGLEWVSTINHIGDSTYYADSVKGRFTISRDNSKNTLYLQMNSLRAEDTAVYYCAKDQWFGVFDYWGQGTLVTVSS
VL: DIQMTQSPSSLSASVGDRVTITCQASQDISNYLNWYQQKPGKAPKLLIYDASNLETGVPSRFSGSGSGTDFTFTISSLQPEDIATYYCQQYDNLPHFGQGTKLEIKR
notes: IgG1; also called PR302927 (IgG1)
B8: PR302264-3 (antibody, human IgG4 S228P, kappa, V domains shown)
VH: QVQLQQWGAGLLKPSETLSLTCAVYGGSLSGYYWSWIRQPPGKGLEWIGEITHSGGTNYNPSLKSRVTISVPTSKNQFSLKLTSVTAADTAVYYCARGQQQLDWYFDLWGRGTLVTVSS
VL: EIVMTQSPATLSVSPGERATLSCRASQNIYSHLVWYQQKPGQAPRLLIYGASTRATGIPARFSGSGSGTEFTLTITSLQSEDFTVYYCQQYNDWPPITFGQGTRLEIRR
notes: PTM variant of PR302264, IgG4; also called PR302264-3 (IgG4)
B9: PR304683 (antibody, V domains shown)
VH: QVQLVQSGAEVKKPGASVKVSCKASGYTFTDYYINWVRQAPGQGLEWMGNVNPNDGGTTYNQKFKGRVTMTTDTSTSTAYMELRSLRSDDTAVYYCARREIYFYGTIYYYAMDYWGQGTLVTVSS
VL: DIQLTQSPSFLSASVGDRVTITCRASESVDYYGNSFMYWYQQKPGKAPKLLIYFASNLESGVPSRFSGSGSGTEFTLTISSLQPEDFATYYCQQNNEDPWTFGGGTKVEIK
notes: also called Control antibody PR304683 (NGM: WO2021127200); NGM707
B10: PR302264-2 (antibody, human IgG4 S228P, kappa, V domains shown)
VH: B8 VH with T52A
VL: B8 VL
notes: PTM variant of PR302264, IgG4; also called PR302264-2 (IgG4)
B11: PR302264 (antibody, human IgG1, kappa, V domains shown)
VH: B8 VH with T52N
VL: B8 VL
notes: IgG1; also called PR302264 (IgG1)
B12: PR302261 (antibody, human IgG1, kappa, V domains shown)
VH: EVQLLESGGGLVQSGGSLRLSCAASGFTFSSYAMSWVRQAPGKGLGWVSTISGSGGSAYYADSVKGRFTVSRDNSKKTLYLQMNSLRAEDTAVYFCAILSGDDAFDIWGQGTMVTVSS
VL: DVVMTQSPLSLPVTPGEPASISCRSSQSLLRGNGYNYLDWYLQKPGQSPQLLIYLGSNRASGVPDRFSGSGSGTDFTLKISRVEAEDVGIFYCMQALQSPLTFGGGTKVEIKR
notes: IgG1; also called PR302261 (IgG1)
B13: PR302282 (antibody, human IgG1, kappa, V domains shown)
VH: QVQLVESGGTVVQSGRSLRLSCAASGFTFSSYGMHWVRQAPGKGLEWVAGMWYDGNYKYYADSVKGRFTISRDNSKNTLSLQMNSLRAEDTAVYYCARDSPIGVFDYWGQGTLVTVSS
VL: B2 VL
notes: IgG1; also called PR302282 (IgG1)
B14: PR302259 (antibody, human IgG1, kappa, V domains shown)
VH: EVQLLESGGGLVQPGGSLRLSCAVSGFTFSSYAMSWVRQAPGKGLEWVSAISDNAGSTYYADSVKGRFTISRDNSKNTLHLQMNSLRAEDTAVYSCAKERQWLVLGVMDAWGQGASVTVSS
VL: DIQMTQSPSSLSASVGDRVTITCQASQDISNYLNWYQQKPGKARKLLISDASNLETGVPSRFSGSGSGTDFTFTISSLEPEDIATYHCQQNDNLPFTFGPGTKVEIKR
notes: IgG1; also called PR302259 (IgG1)
B15: PR001795 (antibody, V domains shown)
VH: EVQLQQWGAGLLKPSETLSLTCAVYGGSFSGYYWSWIRQPPGKGLEWIGEINHAGSTNYNPSLKSRVTISVDTSKNQFSLKLSSVTAADTAVYYCARLPTRWVTTRYFDLWGRGTLVTVSS
VL: ESVLTQPPSVSGAPGQRVTISCTGSSSNIGAGYDVHWYQQLPGTAPKLLIYGDSNRPSGVPDRFSVSKSGASASLAITGLQAEDEADYYCQSFDNSLSAYVFGGGTQLTVL
notes: also called control antibody PR001795 (Merck: US20180298096); MK-4830

What follows are binders tested against T1, human ILT4 expressed on the surface of CHO cells (CHO-huILT4) (human, UniProt Q8N423 22-597) (assay: flow cytometry on CHO-huILT4 cells).
T1 construct: CHO cells infected with lentivirus lenti-huILT4; also called CHO-ILT4; CHO-huILT4 cells
T1 sequence (Q8N423 other isoform, or with tags, fused parts or gaps limits assumed): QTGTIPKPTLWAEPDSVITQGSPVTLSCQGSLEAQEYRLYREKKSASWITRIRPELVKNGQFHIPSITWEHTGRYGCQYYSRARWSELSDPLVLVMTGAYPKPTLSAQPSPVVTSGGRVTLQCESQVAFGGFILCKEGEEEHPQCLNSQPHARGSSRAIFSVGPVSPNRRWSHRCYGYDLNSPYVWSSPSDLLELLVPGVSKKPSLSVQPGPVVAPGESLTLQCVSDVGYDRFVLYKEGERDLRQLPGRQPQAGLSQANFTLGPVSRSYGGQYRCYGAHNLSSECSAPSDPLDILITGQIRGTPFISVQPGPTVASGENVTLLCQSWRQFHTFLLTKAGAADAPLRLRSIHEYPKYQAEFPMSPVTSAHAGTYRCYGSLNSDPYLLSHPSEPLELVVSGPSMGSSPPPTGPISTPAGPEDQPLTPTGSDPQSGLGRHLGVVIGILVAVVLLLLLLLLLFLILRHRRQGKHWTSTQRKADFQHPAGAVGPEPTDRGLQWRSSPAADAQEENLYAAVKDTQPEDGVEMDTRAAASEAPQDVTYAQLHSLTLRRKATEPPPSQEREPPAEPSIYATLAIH

Row | Binder | EC50
1 | B1 | 1.09 nM
2 | B2 | 1.05 nM
3 | B3 | 1.58 nM
4 | B4 | 0.822 nM
5 | B5 | 1.07 nM
6 | B6 | 1.13 nM
7 | B7 | 0.805 nM

These binders were tested against T2, human ILT2-ECD protein (human, UniProt Q8NHL6 24-461) (assay: ELISA, human ILT2-ECD coated at 1 µg/mL).
T2 construct: also called LILRB1 (ILT2)
T2 sequence (Q8NHL6 24-461 limits assumed): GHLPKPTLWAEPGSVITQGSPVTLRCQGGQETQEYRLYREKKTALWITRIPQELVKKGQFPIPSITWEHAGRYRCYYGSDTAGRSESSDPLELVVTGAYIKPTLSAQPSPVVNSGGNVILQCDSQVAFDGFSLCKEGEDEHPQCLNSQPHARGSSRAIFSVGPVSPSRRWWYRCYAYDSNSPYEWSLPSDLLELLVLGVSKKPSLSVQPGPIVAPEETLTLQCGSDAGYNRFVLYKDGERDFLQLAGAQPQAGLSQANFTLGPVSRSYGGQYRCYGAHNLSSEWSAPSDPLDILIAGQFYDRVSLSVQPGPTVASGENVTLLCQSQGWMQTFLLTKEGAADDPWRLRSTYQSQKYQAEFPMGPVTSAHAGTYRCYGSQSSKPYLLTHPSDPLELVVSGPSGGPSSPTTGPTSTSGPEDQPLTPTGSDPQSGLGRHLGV

Row | Binder | binding result
8 | B8 | binds

What follows are binders tested against T3, human ILT4-ECD protein (human, UniProt Q8N423 22-460) (assay: ELISA, protein coated at 1 µg/mL, antibody at 100 nM, OD450).
T3 construct: also called HuILT4; LILRB2 (ILT4)
T3 sequence (Q8N423 other isoform, or with tags, fused parts or gaps limits assumed): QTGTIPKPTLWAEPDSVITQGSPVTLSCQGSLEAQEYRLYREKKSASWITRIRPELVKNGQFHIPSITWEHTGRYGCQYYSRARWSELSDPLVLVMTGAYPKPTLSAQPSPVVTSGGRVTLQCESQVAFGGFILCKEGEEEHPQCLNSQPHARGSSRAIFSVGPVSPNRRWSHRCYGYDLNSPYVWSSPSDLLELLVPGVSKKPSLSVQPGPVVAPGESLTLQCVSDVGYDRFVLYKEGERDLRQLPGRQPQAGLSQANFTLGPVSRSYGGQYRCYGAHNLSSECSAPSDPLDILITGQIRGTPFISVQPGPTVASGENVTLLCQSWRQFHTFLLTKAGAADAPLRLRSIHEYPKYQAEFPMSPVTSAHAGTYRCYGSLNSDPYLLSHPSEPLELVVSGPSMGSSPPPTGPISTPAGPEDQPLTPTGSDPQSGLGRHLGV

Row | Binder | binding result
9 | B9 | binds

What follows are binders tested against T2, human ILT2-ECD protein in the same assay as above.

Row | Binder | binding result
10 | B10 | binds
11 | B9 | binds
12 | B6 | binds

These binders were tested against T4, human LILRA1 (R&D System, Cat: 9226-T4-050) (human, UniProt O75019 17-461) in the same assay as above.
T4 construct: Bought protein; also called LILRA1 (LIR6); LIR6
T4 sequence (O75019 17-461 limits assumed): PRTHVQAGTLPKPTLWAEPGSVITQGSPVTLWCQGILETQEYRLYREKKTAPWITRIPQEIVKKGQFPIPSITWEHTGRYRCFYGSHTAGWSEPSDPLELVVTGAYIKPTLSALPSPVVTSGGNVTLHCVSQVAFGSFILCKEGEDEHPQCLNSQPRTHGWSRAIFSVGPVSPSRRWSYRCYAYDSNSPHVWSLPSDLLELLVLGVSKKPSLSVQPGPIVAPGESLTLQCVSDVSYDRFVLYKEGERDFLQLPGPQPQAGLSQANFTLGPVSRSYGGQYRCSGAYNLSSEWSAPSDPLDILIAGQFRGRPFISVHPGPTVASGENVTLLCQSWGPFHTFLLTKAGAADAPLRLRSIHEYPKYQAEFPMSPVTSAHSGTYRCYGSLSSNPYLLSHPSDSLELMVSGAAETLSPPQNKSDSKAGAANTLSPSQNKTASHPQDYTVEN

Row | Binder | binding result
13 | B10 | binds
14 | B9 | binds
15 | B6 | binds

The binders below were run against T5, human LILRA3 (R&D System, Cat: 9517-T4-100) (human, UniProt Q8N6C8 24-439) in the same assay as above.
T5 construct: Bought protein; also called LILRA3 (LIR4)
T5 sequence (Q8N6C8 24-439 limits assumed): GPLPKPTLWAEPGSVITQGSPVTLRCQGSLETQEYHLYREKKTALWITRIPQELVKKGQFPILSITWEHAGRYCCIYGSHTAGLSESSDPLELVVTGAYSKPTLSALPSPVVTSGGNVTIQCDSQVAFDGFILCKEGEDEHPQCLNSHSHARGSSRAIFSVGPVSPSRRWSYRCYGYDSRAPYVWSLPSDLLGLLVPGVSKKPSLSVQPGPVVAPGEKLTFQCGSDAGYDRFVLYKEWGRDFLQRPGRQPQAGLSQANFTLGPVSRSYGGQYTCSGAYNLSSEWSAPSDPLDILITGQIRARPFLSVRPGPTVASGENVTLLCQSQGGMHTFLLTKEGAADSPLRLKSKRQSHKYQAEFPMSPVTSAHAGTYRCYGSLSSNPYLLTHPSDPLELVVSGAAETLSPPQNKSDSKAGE

Row | Binder | binding result
16 | B9 | binds

The binders below were run against T6, human LILRA4 (R&D System, Cat: 8914-T4-050) (human, UniProt P59901 24-446) in the same assay as above.
T6 construct: Bought protein; also called LILRA4 (ILT7); ILT7
T6 sequence (P59901 24-446 limits assumed): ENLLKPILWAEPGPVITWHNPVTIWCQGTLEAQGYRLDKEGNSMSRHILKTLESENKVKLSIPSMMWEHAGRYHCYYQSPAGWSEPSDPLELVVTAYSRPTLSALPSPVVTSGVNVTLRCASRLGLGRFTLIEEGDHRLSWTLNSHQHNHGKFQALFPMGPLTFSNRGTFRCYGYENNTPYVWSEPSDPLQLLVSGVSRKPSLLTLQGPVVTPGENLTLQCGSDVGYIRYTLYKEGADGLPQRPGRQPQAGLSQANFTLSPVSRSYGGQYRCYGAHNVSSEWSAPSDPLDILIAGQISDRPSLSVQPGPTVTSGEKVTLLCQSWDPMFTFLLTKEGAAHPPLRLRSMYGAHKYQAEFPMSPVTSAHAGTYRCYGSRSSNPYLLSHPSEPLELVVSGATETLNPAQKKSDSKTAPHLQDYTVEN

Row | Binder | binding result
17 | B6 | binds

The binders below were run against T7, human LILRA6 (R&D System, Cat: 9088-T4-050) (human, UniProt Q6PI73 24-447) in the same assay as above.
T7 construct: Bought protein; also called LILRA6 (ILT8); ILT8
T7 sequence (Q6PI73 24-447 limits assumed): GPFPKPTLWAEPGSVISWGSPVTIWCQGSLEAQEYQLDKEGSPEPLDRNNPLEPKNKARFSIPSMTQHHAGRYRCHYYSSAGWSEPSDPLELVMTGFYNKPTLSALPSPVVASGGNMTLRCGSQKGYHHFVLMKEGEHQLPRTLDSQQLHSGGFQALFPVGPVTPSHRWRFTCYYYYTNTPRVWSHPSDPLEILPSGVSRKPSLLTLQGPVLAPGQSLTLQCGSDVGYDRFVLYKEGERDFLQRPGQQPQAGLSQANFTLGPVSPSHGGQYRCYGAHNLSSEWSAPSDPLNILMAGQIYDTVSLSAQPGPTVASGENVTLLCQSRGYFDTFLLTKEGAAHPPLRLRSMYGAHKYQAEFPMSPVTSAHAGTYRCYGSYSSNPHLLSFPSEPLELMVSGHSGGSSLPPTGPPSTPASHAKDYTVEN

Row | Binder | binding result
18 | B6 | binds

Each binder was assayed against T8, human LILRB3 (R&D System, Cat: 9159-T5-050) (human, UniProt O75022 24-443) in the same assay as above.
T8 construct: Bought protein; also called LILRB3 (ILT5); ILT5

Row | Binder | binding result
19 | B6 | binds

These binders were tested against T3, human ILT4-ECD protein (assay: BLI (Octet RED96e), antibody on AHC biosensor, HuILT4 at 100/50/25 nM).

Row | Binder | Kd | kon
20 | B10 | 0.0767 nM | 472000 M⁻¹ s⁻¹
21 | B11 | 0.242 nM | 462000 M⁻¹ s⁻¹
22 | B8 | 0.351 nM | 454000 M⁻¹ s⁻¹
23 | B12 | 0.984 nM | 520000 M⁻¹ s⁻¹
24 | B2 | 0.256 nM | 915000 M⁻¹ s⁻¹
25 | B13 | 0.124 nM | 648000 M⁻¹ s⁻¹
26 | B4 | 0.454 nM | 985000 M⁻¹ s⁻¹
27 | B14 | < 0.001 nM | 773000 M⁻¹ s⁻¹
28 | B6 | 0.458 nM | 694000 M⁻¹ s⁻¹
29 | B15 | 3.52 nM | 431000 M⁻¹ s⁻¹
30 | B7 | 0.884 nM | 980000 M⁻¹ s⁻¹
